Test results reported in PMC8473191.

What was measured:
[1] = molecular target: mMH3_02TE, H3 hemagglutinin ectodomain (A/Hong Kong/45/2019) with cleavable foldon and histidine tag (influenza A virus A/Hong Kong/45/2019 (H3) | not stated); assay: SEC-MALS
[2] = molecular target: mMH1_02TE, H1 hemagglutinin ectodomain (A/Hawaii/70/2019) with cleavable foldon and histidine tag (influenza A virus A/Hawaii/70/2019 (H1) | not stated); assay: SEC-MALS

| Substance | stoichiometry N [1] | stoichiometry N [2] |
| --- | --- | --- |
| mMH3_02TE, H3 hemagglutinin ectodomain (A/Hong Kong/45/2019) with cleavable foldon and histidine tag (domain or fragment) | 3 | – |
| mMH1_02TE, H1 hemagglutinin ectodomain (A/Hawaii/70/2019) with cleavable foldon and histidine tag (domain or fragment) | – | 3 |
